Assay results as given in publication PMC9668089.

Target: p170, truncated ORF2-encoded protein of aa 439-608 from hepatitis E virus CCJD-517 (hepatitis E virus CCJD-517 (HEV-3))
Test: non-reducing SDS-PAGE

Question: For “p170, truncated ORF2-encoded protein of aa 439-608 from hepatitis E virus CCJD-517 (domain or fragment)”, which stoichiometry N is on record?
Answer: Its stoichiometry N is 2.
